Patent US20230295310A1 (ABCELLERA BIOLOGICS, published 2023)

Biological target: EGFR on HeLa cells (UniProt P00533 25-1210, limits assumed)
Assay: cell-based or functional assay

Row | X… HeLa EC50 | Binder | Max killing %
1 | 0.136 nM | GOMP001_bsAb_029 (bispecific antibody, human IgG1, kappa, L234A L235A) heavy 1: QVQLVQSGAEVKKPGASVKVSCKASGYTFTSHWMHWVRKAPGQGLEWIGEFNPSNGRTNYNEEFKSKATMTVDTSTNTAYMELSSLRSEDTAVYYCASRDYDYDGRYFDYWGQGTLVTVSSASTKGPSVFPLAPSSKSTSGGTAALGCLVADYFPEPVTVSWNSGALTSGVHTFPAVLQSSGLYSLSSVVTVPSSSLGTQTYICNVNHKPSNTKVDEKVEPKSCDKTHTCPPCPAPEAAGGPSVFLFPPKPKDTLMISRTPEVTCVVVDVSHEDPEVKFNWYVDGVEVHNAKTKPREEQYNSTYRVVSVLTVLHQDWLNGKEYKCKVSNKALPAPIEKTISKAKGQPREPQVYTLPPSREEMTDNQVSLTCLVKGFYPSDIAVEWESNGQPENNYKTTPPVLMSDGSFFLASKLTVDKSRWQQGNVFSCSVMHEALHNHYTQKSLSLSPG light 1: RIQMTQSPSSLSASVGDRVTITCSASSSVTYMYWYQDKPGKAPKLLIYDTSNLASGVPSRFSGSGSGTDYTFTISSLQPEDIATYYCQQWSSHIFTFGQGTKVEIKRTVAAPSVFIFPPSDKQLKSGTARVVCLLNNFYPREAKVQWKVDNALQSGNSQESVTEQDSKDSTYSLSSTLTLSKADYEKHKVYACEVTHQGLSSPVTKSFNRGEC heavy 2: QVQLVQSGAEVKKPGASVKVSCKASGYTVTGYYMHWVRYAPGQGLEWMGWINPNSGGTNFAQRFQGRVTMTRDTSISTFYMDLNRLRSDDTAVYYCARGGAPVSYWFFDLWGRGTLVTVSSASTKGPSVFPLAPSSKSTSGGTAALGCLVKDYFPEPVTVSWNSGALTSGVHTFPAVLQSSGLYSLSSVVTVPSSSLGTQTYICNVNHKPSNTKVDKKVEPKSCDKTHTCPPCPAPEAAGGPSVFLFPPKPKDTLMISRTPEVTCVVVDVSHEDPEVKFNWYVDGVEVHNAKTKPREEQYNSTYRVVSVLTVLHQDWLNGKEYKCKVSNKALPAPIEKTISKAKGQPRRPRVYTLPPSREEMTKNQVSLVCLVKGFYPSDIAVEWESNGQPENNYKTTPPVLDSDGSFFLYSVLTVDKSRWQQGNVFSCSVMHEALHNHYTQKSLSLSPG light 2: DIQMTQSPSSLSASVGDRVTITCRASQSISRYLNWYQRKPGDAPKVLIYNTSSLKSGVPSRFSGSGSGTDFTLTISSLQPEDFGTFYCQQSHSTPFTFGPGTKVDIKRTVAAPSVFIFPPSDEQLKSGTASVVCLLNNFYPREAKVQWKVDNALQSGNSQESVTEQDSKDSTYSLSSTLTLSKADYEKHKVYACEVTHQGLSSPVTKSFNRGEC | 81.1%
2 | 0.0454 nM | GOMP001_bsAb_030 (bispecific antibody, human IgG1, kappa, L234A L235A) heavy 1: QVQLVQSGAEVKKPGASVKVSCKASGYTVTGYYMHWVRKAPGQGLEWMGWINPNSGGTNFAQEFQGRVTMTRDTSISTFYMDLNRLRSDDTAVYYCARGGAPVSYWFFDLWGRGTLVTVSSASTKGPSVFPLAPSSKSTSGGTAALGCLVADYFPEPVTVSWNSGALTSGVHTFPAVLQSSGLYSLSSVVTVPSSSLGTQTYICNVNHKPSNTKVDEKVEPKSCDKTHTCPPCPAPEAAGGPSVFLFPPKPKDTLMISRTPEVTCVVVDVSHEDPEVKFNWYVDGVEVHNAKTKPREEQYNSTYRVVSVLTVLHQDWLNGKEYKCKVSNKALPAPIEKTISKAKGQPREPQVYTLPPSREEMTDNQVSLTCLVKGFYPSDIAVEWESNGQPENNYKTTPPVLMSDGSFFLASKLTVDKSRWQQGNVFSCSVMHEALHNHYTQKSLSLSPG light 1: RIQMTQSPSSLSASVGDRVTITCRASQSISRYLNWYQDKPGKAPKVLIYNTSSLKSGVPSRFSGSGSGTDFTLTISSLQPEDFGTFYCQQSHSTPFTFGPGTKVDIKRTVAAPSVFIFPPSDKQLKSGTARVVCLLNNFYPREAKVQWKVDNALQSGNSQESVTEQDSKDSTYSLSSTLTLSKADYEKHKVYACEVTHQGLSSPVTKSFNRGEC heavy 2: QVQLVQSGAEVKKPGASVKVSCKASGYTFTSHWMHWVRYAPGQGLEWIGEFNPSNGRTNYNEKFKSKATMTVDTSTNTAYMELSSLRSEDTAVYYCASRDYDYDGRYFDYWGRGTLVTVSSASTKGPSVFPLAPSSKSTSGGTAALGCLVKDYFPEPVTVSWNSGALTSGVHTFPAVLQSSGLYSLSSVVTVPSSSLGTQTYICNVNHKPSNTKVDKKVEPKSCDKTHTCPPCPAPEAAGGPSVFLFPPKPKDTLMISRTPEVTCVVVDVSHEDPEVKFNWYVDGVEVHNAKTKPREEQYNSTYRVVSVLTVLHQDWLNGKEYKCKVSNKALPAPIEKTISKAKGQPRRPRVYTLPPSREEMTKNQVSLVCLVKGFYPSDIAVEWESNGQPENNYKTTPPVLDSDGSFFLYSVLTVDKSRWQQGNVFSCSVMHEALHNHYTQKSLSLSPG light 2: DIQMTQSPSSLSASVGDRVTITCSASSSVTYMYWYQRKPGDAPKLLIYDTSNLASGVPSRFSGSGSGTDYTFTISSLQPEDIATYYCQQWSSHIFTFGQGTKVEIKRTVAAPSVFIFPPSDEQLKSGTASVVCLLNNFYPREAKVQWKVDNALQSGNSQESVTEQDSKDSTYSLSSTLTLSKADYEKHKVYACEVTHQGLSSPVTKSFNRGEC | 92.6%

More lines, now with the values behind:

Row | Binder | X… HeLa EC50 | Max killing %
3 | GOMP001_bsAb_023 (bispecific antibody, human IgG1, kappa, L234A L235A) heavy 1: QVQLVQSGAEVKKPGASVKVSCKASGYTFTSHWMHWVRKAPGQGLEWIGEFNPSNGRTNYNEEFKSKATMTVDTSTNTAYMELSSLRSEDTAVYYCASRDYDYDGRYFDYWGQGTLVTVSSASTKGPSVFPLAPSSKSTSGGTAALGCLVADYFPEPVTVSWNSGALTSGVHTFPAVLQSSGLYSLSSVVTVPSSSLGTQTYICNVNHKPSNTKVDEKVEPKSCDKTHTCPPCPAPEAAGGPSVFLFPPKPKDTLMISRTPEVTCVVVDVSHEDPEVKFNWYVDGVEVHNAKTKPREEQYNSTYRVVSVLTVLHQDWLNGKEYKCKVSNKALPAPIEKTISKAKGQPREPQVYTLPPSREEMTDNQVSLTCLVKGFYPSDIAVEWESNGQPENNYKTTPPVLMSDGSFFLASKLTVDKSRWQQGNVFSCSVMHEALHNHYTQKSLSLSPG light 1: RIQMTQSPSSLSASVGDRVTITCSASSSVTYMYWYQDKPGKAPKLLIYDTSNLASGVPSRFSGSGSGTDYTFTISSLQPEDIATYYCQQWSSHIFTFGQGTKVEIKRTVAAPSVFIFPPSDKQLKSGTARVVCLLNNFYPREAKVQWKVDNALQSGNSQESVTEQDSKDSTYSLSSTLTLSKADYEKHKVYACEVTHQGLSSPVTKSFNRGEC heavy 2: QGQLVESGGGVVQPGRSLRLSCEASGFTFRSYGMHWVRYPPGKGLEWVAIIWYDGGKKYYGDRVKGRFTISRDNPKNTLYLQMNSLRPEDTAVYYCMAYDYSNGFDIWGRGTMVTVSSASTKGPSVFPLAPSSKSTSGGTAALGCLVKDYFPEPVTVSWNSGALTSGVHTFPAVLQSSGLYSLSSVVTVPSSSLGTQTYICNVNHKPSNTKVDKKVEPKSCDKTHTCPPCPAPEAAGGPSVFLFPPKPKDTLMISRTPEVTCVVVDVSHEDPEVKFNWYVDGVEVHNAKTKPREEQYNSTYRVVSVLTVLHQDWLNGKEYKCKVSNKALPAPIEKTISKAKGQPRRPRVYTLPPSREEMTKNQVSLVCLVKGFYPSDIAVEWESNGQPENNYKTTPPVLDSDGSFFLYSVLTVDKSRWQQGNVFSCSVMHEALHNHYTQKSLSLSPG light 2: DIVMTQTPLSSPVTLGQPASISCRSSQSFVHSDGSTYLSWLQRRPGDPPRLLIYKISNRFSGVPDRFSGRGAGTDFTLKISRVEAEDVGIYYCMQNTQFPYTFGQGTKLEIKRTVAAPSVFIFPPSDEQLKSGTASVVCLLNNFYPREAKVQWKVDNALQSGNSQESVTEQDSKDSTYSLSSTLTLSKADYEKHKVYACEVTHQGLSSPVTKSFNRGEC | – | 27.5%
4 | GOMP001_bsAb_024 (bispecific antibody, human IgG1, kappa, L234A L235A) heavy 1: QGQLVESGGGVVQPGRSLRLSCEASGFTFRSYGMHWVRKPPGKGLEWVAIIWYDGGKKYYGDEVKGRFTISRDNPKNTLYLQMNSLRPEDTAVYYCMAYDYSNGFDIWGQGTMVTVSSASTKGPSVFPLAPSSKSTSGGTAALGCLVADYFPEPVTVSWNSGALTSGVHTFPAVLQSSGLYSLSSVVTVPSSSLGTQTYICNVNHKPSNTKVDEKVEPKSCDKTHTCPPCPAPEAAGGPSVFLFPPKPKDTLMISRTPEVTCVVVDVSHEDPEVKFNWYVDGVEVHNAKTKPREEQYNSTYRVVSVLTVLHQDWLNGKEYKCKVSNKALPAPIEKTISKAKGQPREPQVYTLPPSREEMTDNQVSLTCLVKGFYPSDIAVEWESNGQPENNYKTTPPVLMSDGSFFLASKLTVDKSRWQQGNVFSCSVMHEALHNHYTQKSLSLSPG light 1: RIVMTQTPLSSPVTLGQPASISCRSSQSFVHSDGSTYLSWLQDRPGQPPRLLIYKISNRFSGVPDRFSGRGAGTDFTLKISRVEAEDVGIYYCMQNTQFPYTFGQGTKLEIKRTVAAPSVFIFPPSDKQLKSGTARVVCLLNNFYPREAKVQWKVDNALQSGNSQESVTEQDSKDSTYSLSSTLTLSKADYEKHKVYACEVTHQGLSSPVTKSFNRGEC heavy 2: QVQLVQSGAEVKKPGASVKVSCKASGYTFTSHWMHWVRYAPGQGLEWIGEFNPSNGRTNYNEKFKSKATMTVDTSTNTAYMELSSLRSEDTAVYYCASRDYDYDGRYFDYWGRGTLVTVSSASTKGPSVFPLAPSSKSTSGGTAALGCLVKDYFPEPVTVSWNSGALTSGVHTFPAVLQSSGLYSLSSVVTVPSSSLGTQTYICNVNHKPSNTKVDKKVEPKSCDKTHTCPPCPAPEAAGGPSVFLFPPKPKDTLMISRTPEVTCVVVDVSHEDPEVKFNWYVDGVEVHNAKTKPREEQYNSTYRVVSVLTVLHQDWLNGKEYKCKVSNKALPAPIEKTISKAKGQPRRPRVYTLPPSREEMTKNQVSLVCLVKGFYPSDIAVEWESNGQPENNYKTTPPVLDSDGSFFLYSVLTVDKSRWQQGNVFSCSVMHEALHNHYTQKSLSLSPG light 2: DIQMTQSPSSLSASVGDRVTITCSASSSVTYMYWYQRKPGDAPKLLIYDTSNLASGVPSRFSGSGSGTDYTFTISSLQPEDIATYYCQQWSSHIFTFGQGTKVEIKRTVAAPSVFIFPPSDEQLKSGTASVVCLLNNFYPREAKVQWKVDNALQSGNSQESVTEQDSKDSTYSLSSTLTLSKADYEKHKVYACEVTHQGLSSPVTKSFNRGEC | 0.895 nM | 72.5%
